Data: the NTF2 design screens of Basanta et al. (2020)

Experiment: protease stability score; higher = more stable; yeast display proteolysis, trypsin and chymotrypsin;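 note: relative to predicted unfolded state with 0 unfolded-like and 1 meaning tenfold more protease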

In order of falling protease stability score:
1. DEKEKESEDLAEIILKLWATGDEEIFEHLLDPNVWMIDEDEVFHGMEKVSEFLLRLREKLGVDHFRVHHIEIQGDKVHMDIRLEVNGKILKTHIRVIIINGRIHTVEIRIH  2.37
2. SEDDEKLKDFLRMLIEVILTGDEERFFELLDPHARLEYGDKEFHGREVIYHWFFNEFRRIKGLVFRNIHLREHDVVDGRLQIDLEVHIIFNGKTRSHDIHFVATKIDGRWILRTESIK  2.33
3. DEEEEFLRLILETLRHAAETGDWHILNRLLDPDARIVIGDKEIHGREKVQHEFRRIDHYQWHHIILDRVHIYDGRIELHGQVEEELNVDGQRIRRLTDTHFVIVKVDGQWKIHTIEIR  2.22
4. DERMEVIEELLKKISHALYTGNEKLLEQMADPNVRLEIGDKEFVGWEQLLELIREIRLSITDIDIRDERLIGNKIHLRGESRTIHVIGDKTWEERRDVHFVILKIDGKWVMHEIEYR  1.95
5. DELTREMDRVHEELVRSLTTGDEDRLASMMDPNARLRIDGVNFIGRDKIREFWHQIDHSSMHLHHIHVYGDKIRLEGELILNFNGVEHNHETLMIIKKVDGKWVIESIHLK  1.79
6. DEDTKLMEEVIRLHMELLKTGNWDELLHMLDPNAKFEAEGRDKHGWHNFLREYKHFYEELGFKHSRVHHVRVQGDKLEMDLRINVGDKEFETNLEVLKVNGRWLIKFVRID  1.58
7. DETTHELEWFTKIVAHAIETGDFEVMLNLIDPNVRVQEIIDGREIEFHGWHAFEHWMRKFKNITIIIRHVHHQGNKVEIEGEIDFNGKRRDVRIRFHVWNGRVKEFRHEER  1.52
8. REEDHRSRHLSELWIHLWETGDEETMKKLADPNMRINVNGQEFHGREQATRHIHEFLEKFKNVRLHVENIRIQGEKILIISRAEVDGQELEIHIELIIVDGRIEEVNLHVYRR  1.46
9. RKEEEDLHKLLEHLSENYWTGNEEMFNHLADPHTRFEIRIGEFTIEDHGRERIKELVEWLLRFLGANHSHLTSIRVVGDKFHVNSLIHVDGREHTLHIIFVFINGRLTHYSMEVR  1.35
10. DEDTEDLKRLIKLFVDLIRTGDWEELEKLLDPNVRLHFNGRDYHGRELALELMKVFGVDHIQLREVRVVNGKAENRTELIVNGREHEEHVIMEKIDGRWRIRSFEFR  1.3
11. DEDEEITERIIRLLLNAWMTGDEEMLKRLFDPHVRIDQGDKNLIGWEELERETRRIDHIRLDLRIKHIKVYDGRVEINSFLHVDLHINGVTLHHELRMHIIIEKVDGRWIIHSQKLE  1.25
12. DEDRHDVKRWLEFLVKLMETGDEEVLRTLADPNTRVDINGRDNHGWESVVTVLRELGANHIHHIEIKHLHIINGRVHIDMRVHRIQGDKTLDFDIHLHANKYNGRWHLKSVQIH  1.24
13. HEDEEKVKNMVRHEIQALQTGDWDHWLNLADPHVKLYIDGRINHGRHVIRFLVERFDHFRIDHYEVRSINHVDGRVRVNTQLHGQETINGVHEKHTVEVEMTIIKVNGRWYIEHLELE  1.2
14. DEQEESTRIAMELVLRSLKTGDERTVSELVDPNVRYEQGDKEYHGWESASEVVRRLGVDHFIIHDIKIQGNKLHLHGELVVGDYTLKYHIIVLKVNGRWQITRMHTI  1.2
15. NEEERENIRIFMMWIEDLVTGNWDRIEHLADPHYRQDVNGRHIHGRDTFAQMVREEMHRIDHHEIKLRHVSVQGNKLRAHVEINLIIGEKRIEKEVIVDLNVINGVLHEVKIVVR  1.04
16. SEEDEELKEWLEEFVHALKTGDENLLQRLADPNTRLIFDGRKFHGREEYRKNYEHLRHRIDHIHDEKSTTVHLINGKVTVESRLDGEINGKRIIFKTIIFYWKFDGRWFLRSEEIR  0.935
17. DEQERIIRRLTELFTRAEKTGDWKNFLELADPHVRLKYGEFDHIGREEFYTLKEHVDKKLGIEFRDTDIKDLVVVGDKAVSHLTNDGEVNGVRHELSLNVVISKFNGRWELEQVEIK  0.897
18. SEKEKLYKDMFRLWAENHRTGNEKKLLEMADPNAQFIFNGREFHGRELIKEEIDEWINRIKNVRVDIHRVEIQGEKIHVITRLHINGQDLETKVELIIVDGQLHLERIHID  0.759
19. SEVHEQIEEIFREFMHMLLTGDWKRLTELADPHVRLEFDGREFHGREELVRRLLELGFKHQHLHDMRIHNFDGRVYMHTDTRVHVDGKHVIVRLELIVNKFNGQWYVHSLRIEVQ  0.343
20. DHREEESKRYLDDYSRAVTTGDEDRLTELLDPNTKLNYNGQEYHGMEKYKEVLHKILTEIRFESHHVETFRVVGNKLQLDTHIKGHINGKHIRLETHVDIVKINGRWLIDSVRFQ  0.29
